Source: US10428140B2, “Anti-EphA4 antibody” (EISAI R&D MANAGEMENT CO., LTD., priority 2015, dated 2019)

What was measured:
Experiment in all cases: Selectivity ELISA of humanized antibodies for human Eph receptor
Assay type in all cases: binding
Conditions in all cases: coated protein 1 nM
human EphA5 = molecular target: T1, human EphA5 (Homo sapiens, UniProt P54756)
T1 construct: a protein of the extracellular region of each human Eph receptor fused with the SEAP protein and the His tag; made in house; host or cells: Expi293F cells (culture supernatant)
T1 sequence (P54756 25-573 limits assumed): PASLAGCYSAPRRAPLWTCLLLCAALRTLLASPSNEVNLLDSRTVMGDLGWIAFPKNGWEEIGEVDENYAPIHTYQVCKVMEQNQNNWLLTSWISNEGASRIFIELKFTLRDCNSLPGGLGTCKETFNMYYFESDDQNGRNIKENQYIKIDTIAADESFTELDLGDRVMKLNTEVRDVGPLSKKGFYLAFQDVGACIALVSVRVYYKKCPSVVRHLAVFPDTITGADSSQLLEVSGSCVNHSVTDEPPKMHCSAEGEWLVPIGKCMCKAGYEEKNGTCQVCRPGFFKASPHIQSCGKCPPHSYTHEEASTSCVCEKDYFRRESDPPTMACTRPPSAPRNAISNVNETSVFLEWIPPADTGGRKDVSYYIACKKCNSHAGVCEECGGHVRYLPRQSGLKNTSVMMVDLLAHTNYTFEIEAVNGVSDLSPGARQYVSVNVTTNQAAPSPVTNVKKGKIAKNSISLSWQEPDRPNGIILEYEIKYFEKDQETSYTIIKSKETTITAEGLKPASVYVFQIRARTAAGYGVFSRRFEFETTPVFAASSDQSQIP
Outline: (§1)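 Read-out is A450 after TMB development stopped with 1N H2SO4. Plates bore anti-His-captured human Eph extracellular region-SEAP-His proteins at 1 nM final, made in Expi293F cells. Humanized antibody binding ran 1 h at room temperature before HRP-labeled anti-IgG detection.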

human EphB1 = molecular target: T2, human EphB1 (Homo sapiens, UniProt P54762)
T2 construct: a protein of the extracellular region of each human Eph receptor fused with the SEAP protein and the His tag; made in house; host or cells: Expi293F cells (culture supernatant)
T2 sequence (P54762 18-540 limits assumed): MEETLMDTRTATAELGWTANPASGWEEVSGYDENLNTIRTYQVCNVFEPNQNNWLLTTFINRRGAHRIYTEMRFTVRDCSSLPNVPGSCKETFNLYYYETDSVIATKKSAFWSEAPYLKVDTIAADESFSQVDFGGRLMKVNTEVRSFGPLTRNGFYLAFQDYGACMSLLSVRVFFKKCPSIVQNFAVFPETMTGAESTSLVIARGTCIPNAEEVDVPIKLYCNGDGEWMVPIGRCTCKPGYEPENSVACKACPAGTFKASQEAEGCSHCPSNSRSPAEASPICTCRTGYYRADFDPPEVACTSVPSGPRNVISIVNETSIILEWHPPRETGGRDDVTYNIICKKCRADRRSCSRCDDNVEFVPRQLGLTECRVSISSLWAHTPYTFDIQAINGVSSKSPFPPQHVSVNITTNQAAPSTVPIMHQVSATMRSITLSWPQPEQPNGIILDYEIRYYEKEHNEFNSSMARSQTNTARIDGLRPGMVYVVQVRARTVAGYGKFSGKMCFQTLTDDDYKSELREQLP
Outline: as §1

human EphB3 = molecular target: T3, human EphB3 (Homo sapiens, UniProt P54753)
T3 construct: a protein of the extracellular region of each human Eph receptor fused with the SEAP protein and the His tag; made in house; host or cells: Expi293F cells
T3 sequence (P54753 34-559 limits assumed): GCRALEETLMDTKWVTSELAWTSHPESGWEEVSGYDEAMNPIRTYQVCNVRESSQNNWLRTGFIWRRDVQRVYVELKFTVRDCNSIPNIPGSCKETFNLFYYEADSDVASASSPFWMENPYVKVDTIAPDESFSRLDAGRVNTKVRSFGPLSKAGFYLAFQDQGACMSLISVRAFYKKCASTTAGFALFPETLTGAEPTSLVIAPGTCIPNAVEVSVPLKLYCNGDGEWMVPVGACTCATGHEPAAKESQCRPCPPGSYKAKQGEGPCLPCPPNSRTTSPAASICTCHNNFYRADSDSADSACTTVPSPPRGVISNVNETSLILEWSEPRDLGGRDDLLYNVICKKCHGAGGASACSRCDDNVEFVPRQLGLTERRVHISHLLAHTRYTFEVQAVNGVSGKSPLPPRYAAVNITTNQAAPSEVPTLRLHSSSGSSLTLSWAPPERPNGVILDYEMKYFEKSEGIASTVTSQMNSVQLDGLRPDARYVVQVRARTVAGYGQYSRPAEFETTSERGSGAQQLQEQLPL
Outline: as §1

human EphB2 = molecular target: T4, human EphB2 (Homo sapiens, UniProt P29323)
T4 construct: a protein of the extracellular region of each human Eph receptor fused with the SEAP protein and the His tag; made in house; host or cells: Expi293F cells
T4 sequence (P29323 19-543 limits assumed): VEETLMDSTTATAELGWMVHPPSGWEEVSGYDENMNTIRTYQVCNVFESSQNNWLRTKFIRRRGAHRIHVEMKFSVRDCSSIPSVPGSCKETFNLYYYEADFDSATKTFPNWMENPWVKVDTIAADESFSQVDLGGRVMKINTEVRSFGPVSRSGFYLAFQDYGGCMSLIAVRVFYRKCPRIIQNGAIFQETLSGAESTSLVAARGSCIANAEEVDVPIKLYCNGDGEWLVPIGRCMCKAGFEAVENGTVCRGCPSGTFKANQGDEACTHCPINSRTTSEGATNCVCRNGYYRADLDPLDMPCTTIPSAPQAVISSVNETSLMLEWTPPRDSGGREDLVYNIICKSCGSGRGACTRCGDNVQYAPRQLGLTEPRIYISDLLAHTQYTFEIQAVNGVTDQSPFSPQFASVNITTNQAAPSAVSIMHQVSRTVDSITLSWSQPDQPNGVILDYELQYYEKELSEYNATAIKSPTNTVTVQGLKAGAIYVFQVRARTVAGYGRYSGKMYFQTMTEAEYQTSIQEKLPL
Outline: as §1

hEphA5-SEAP-: absorbance at 450 nm, percentage with respect to hEphA4-SEAP-His as 100% (human EphA5): 5.2% | hEphB1-SEAP-: absorbance at 450 nm, percentage with respect to hEphA4-SEAP-His as 100% (human EphB1): 5.2% | hEphB3-SEAP-: absorbance at 450 nm, percentage with respect to hEphA4-SEAP-His as 100% (human EphB3): 5.5% | hEphB2-SEAP-: absorbance at 450 nm, percentage with respect to hEphA4-SEAP-His as 100% (human EphB2): 5.3%
B1: 136 (antibody, V domains shown)
VH: QVQLVQSGSELKKPGASVKVSCKASGYTFTDYSMHWVRQAPGQGLKWMGWINTETGEPTYADDFKGRFVFSLDTSVSTAYLQISSLKAEDTAVYYCARIPLYYYGSRYWYFDVWGQGTTVTVSS
VL: EIVMTQSPATLSVSPGERATLSCRASENIYRNLAWYQQKPGQSPRLLIYAATNLADGIPARFSGSGSGTEYTLTISSLQSEDFAVYYCQHFWGTPWTFGQGTKVEIK
modifications: synthetic humanized antibody heavy chain variable region sequence; synthetic humanized antibody light chain variable region sequence
